The values that follow come from patent US20130230533A1 (Regeneron, published 2013).

The target of assay [1] is T1, monomeric monkey CD48 expressed with a tag consisting of 2 myc and one 6-His epitopes (monkey).
T1 construct: also called mfCD48-mmH; Monomeric monkey CD48-mmH
T1 chain: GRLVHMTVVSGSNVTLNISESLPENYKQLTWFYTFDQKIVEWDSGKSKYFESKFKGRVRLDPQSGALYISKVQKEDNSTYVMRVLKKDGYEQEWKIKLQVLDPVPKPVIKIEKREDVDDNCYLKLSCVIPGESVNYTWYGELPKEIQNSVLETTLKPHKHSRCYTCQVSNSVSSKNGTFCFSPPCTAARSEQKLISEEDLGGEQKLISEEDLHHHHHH
The experiment in a line: competition ELISA; blocks mfCD48-mmH binding to coated h2B4-mFc. How it is done: (§1) The ability of human anti-CD48 monoclonal antibodies to block human CD48 and monkey CD48 binding to the human cognate ligand, human 2B4, was measured using a competition sandwich ELISA (Table 8). Constant amounts of biotinylated dimeric human CD48 protein expressed as a fusion with mouse IgG2a Fc (“bio-hCD48-mFc” [SEQ ID NO: 387]) or monomeric monkey CD48 expressed with a tag consisting of 2 myc and one 6-His epitopes (“mfCD48-mmH” [SEQ ID NO: 386]) were separately titrated with varying amounts of antibodies. These antibody-protein complexes were incubated (1 hr, 25° C.) before being transferred to microtiter plates coated with a dimeric construct expressing the human 2B4 receptor fused to a either human IgG1 (h2B4-hFc [R&D Systems, Inc., Minneapolis, Minn., Cat. No. 1039-2B]) or mouse IgG2a Fc (h2B4-mFc [SEQ ID NO: 389). After a 1 hr at 25° C. the wells were washed and bound human CD48 was detected with streptavidin conjugated with horse-radish peroxidase (HRP), and monkey CD48 was detected with an HRP conjugated anti-myc polyclonal antibody. The ELISA was developed with a TMB solution to produce a colorimetric reaction and quenched with sulfuric acid before reading absorbance at 450 nm on a Victor X5 plate reader. Sigmoidal dose response curves were fit to the data using Prism™ software. […] (Tables 8 and 9, NB=no binding observed)
A general note: In an ELISA, binding on a coated surface is turned into a signal by an enzyme label.

Assay [2] deals with T2, biotinylated dimeric human CD48 protein expressed as a fusion with mouse IgG2a Fc (human, biotinylated).
T2 construct: also called bio-hCD48-mFc; Dimeric human CD48-mFc
T2 chain: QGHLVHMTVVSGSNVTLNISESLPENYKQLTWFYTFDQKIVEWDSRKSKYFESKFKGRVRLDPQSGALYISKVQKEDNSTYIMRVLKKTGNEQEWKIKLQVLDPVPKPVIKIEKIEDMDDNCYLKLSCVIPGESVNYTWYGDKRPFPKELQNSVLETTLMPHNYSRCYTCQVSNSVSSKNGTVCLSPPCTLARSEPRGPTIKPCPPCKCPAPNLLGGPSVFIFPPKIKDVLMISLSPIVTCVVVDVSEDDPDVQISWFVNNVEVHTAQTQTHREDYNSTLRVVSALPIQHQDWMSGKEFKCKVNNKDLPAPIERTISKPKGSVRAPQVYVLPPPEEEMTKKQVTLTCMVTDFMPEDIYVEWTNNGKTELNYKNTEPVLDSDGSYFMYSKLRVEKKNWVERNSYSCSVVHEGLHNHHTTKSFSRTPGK
The experiment in a line: competition ELISA; blocks bio-hCD48-mFc binding to coated h2B4-hFc. How it is done:
as §1

The target in assay [3] is T3, human CD48 (on primary human peripheral blood mononuclear cells) (human, UniProt P09326 27-220).
T3 sequence: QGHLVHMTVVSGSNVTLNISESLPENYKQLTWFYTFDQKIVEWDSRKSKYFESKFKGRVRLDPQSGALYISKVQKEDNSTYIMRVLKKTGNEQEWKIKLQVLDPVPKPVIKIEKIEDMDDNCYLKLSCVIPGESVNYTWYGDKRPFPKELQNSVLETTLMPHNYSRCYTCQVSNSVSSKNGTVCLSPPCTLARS
Kind of assay: cell-based or functional assay.

Assay [4] addresses T3, human CD48 (on primary human peripheral …). The experiment in a line: cell-based or functional assay. The source holds these as a separate data set.
The target in assay [5] is T2, biotinylated dimeric human CD48 protein …. The experiment in a line: competition ELISA; blocks bio-hCD48-mFc binding to coated h2B4-mFc. On the procedure: as §1
For assay [6], the target named is T1, monomeric monkey CD48 expressed with a …. Kind of assay: competition ELISA; blocks mfCD48-mmH binding to coated h2B4-hFc. How it is done: as §1

A word on the IC50: it is the concentration at which inhibition is half-maximal.

B1: H2M1707N (antibody, V domains shown)
VH: EGQLLESGGGLAQPGGSLRLSCAASGITFGRYAMSWVRQAPGKGLEWVSLISGSGGSTYHADSVKGRFTISRDNSKNTLYLQMNSLRAEDTAVYYCAIYNNYNWFDPWGQGTLVTVSS
VL: EIVLTQSPGTLSLSPGERATLSCRASQSVSSNYLAWYQQKPGQAPRLLIYDASSRATDIPDRFSGSGSGTDFTLTISRLEPEDFAVYYCQQYGSSPRTFGQGTKVEIK
notes: Human variable domains, mouse IgG2 Fc (H2M)
As for B1, the IC50 in assay [1] worked out at 4.9 pM. In addition, the IC50 in assay [2] was 0.022 nM. In assay [3], the “Inhibition of IFN-gamma Release IC50; Donor 1” value (“Inhibition … Donor 1” below) turned out to be 4.9e-11 Molar, the “Inhibition of IFN-gamma Release IC50; Donor 2” value (from here on “Inhibition … Donor 2”) was 3e-11 Molar, the “Inhibition of IFN-gamma Release IC50; Donor 3” value (shortened to “Inhibition … Donor 3”) turned out to be 1.1e-10 Molar and the “Inhibition of IFN-gamma Release IC50; Donor 4” value (from here on “Inhibition … Donor 4”) was 1.7e-10 Molar. In addition, the “Inhibition of IFN-gamma Release IC50; Donor 5” value (shortened to “Inhibition … Donor 5”) in assay [3] amounted to 1.5e-11 Molar. In addition, in assay [4], the “Inhibition of IFN-gamma Release IC50; Donor 6” value (“Inhibition … Donor 6” below) was determined as 9.3e-12 Molar and the “Inhibition of IFN-gamma Release IC50; Donor 7” value (from here on “Inhibition … Donor 7”) worked out at 1.9e-11 Molar. The same molecule came in with an IC50 in assay [5] of 0.0086 nM. The IC50 in assay [6] worked out at 0.023 nM.

B2: H2M1764N (antibody, mouse IgG2, V domains shown)
VH: QVQLVESGGGVVQPGRSLRLSCAASGFTFSDYGMHWVRQAPGKGLEWVAVIWNDGSNKNYADSVKGRFSISSDSSKNTLYLHMNSLRAEDTAVYYCARSLYSTSPWYFDLWGRGTLVTVSS
VL: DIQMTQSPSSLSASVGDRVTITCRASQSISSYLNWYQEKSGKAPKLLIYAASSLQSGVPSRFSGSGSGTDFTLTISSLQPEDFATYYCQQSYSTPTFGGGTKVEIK
notes: as for B1
Molecule B2 displayed an IC50 in assay [1] of 62 pM. In assay [2], the IC50 is 0.064 nM. Besides, in assay [3], the “Inhibition … Donor 1” value came to 2.7e-11 Molar, the “Inhibition … Donor 2” value amounted to 1.1e-10 Molar, the “Inhibition … Donor 3” value turned out to be 1.9e-10 Molar and the “Inhibition … Donor 4” value stood at 9.5e-11 Molar. Also, the “Inhibition … Donor 5” value in assay [3] amounted to 1.9e-11 Molar. Moreover, in assay [4], the “Inhibition … Donor 6” value came to 1e-10 Molar. Moreover, the IC50 in assay [5] was found to be 0.029 nM. The same molecule showed an IC50 in assay [6] of 0.24 nM.

B3: H2M1713N (antibody, mouse IgG2, V domains shown)
VH: QVQLVQSGAEVKKPGASVKVSCKASGHTFTNYYIHWVRQAPGQGLEWMGITNPNDGNTRYAQKFQGRISMTWDTSTSTVFMELSSLKSEDTAVYYCAGLRYWFFDLWGRGTPVTVSS
VL: DIQMTQSPSSVSASVGDRVTITCRASQDISSWLAWYQQKPGKAPNLLIFAASSLQSGVPSRFSGSGSGTDFTLTISSLQPEDFGTYYCQQTDNFPRTFGQGTKVEIN
notes: as for B1
For B3, the IC50 in assay [1] is 2.5 pM. Also, in assay [2], the IC50 was determined as 0.026 nM. In assay [3], the “Inhibition … Donor 1” value was determined as 2.1e-11 Molar, the “Inhibition … Donor 2” value is 7.6e-11 Molar, the “Inhibition … Donor 4” value came to 1.1e-10 Molar and the “Inhibition … Donor 5” value stood at 1.1e-11 Molar. Moreover, in assay [4], the “Inhibition … Donor 6” value is 2.2e-11 Molar and the “Inhibition … Donor 7” value came to 1e-10 Molar. The molecule also gave an IC50 in assay [5] of 0.022 nM. In assay [6], this molecule yielded an IC50 of 0.024 nM.

B4: H2M1710N (antibody, mouse IgG2, V domains shown)
VH: QVQLVQSGADMKKPGASVRVSCKASGYTFTDYFIHWVRQAPGQGPEWMGWINPDSGATNYAQQFQGRVTMTRDTSISATYMEMSRLRSDDTAVFYCARDKDGSGWYLDDWGQGTLVTVSS
VL: EIVLTQSPATLSLSPGERATLSCRASQSVNIYLAWYQQKPGQAPRLLIYDASNRASGIPARFSGSGSGTDFTLTISSLEPEDFAVYYCQQRSNWPPSITFGQGTRLEIK
notes: as for B1
For B4, in assay [1], the IC50 amounted to 260 pM. Besides, the IC50 in assay [2] came to 0.58 nM. Further, in assay [3], the “Inhibition … Donor 1” value was 7.8e-10 Molar, the “Inhibition … Donor 2” value is 1.9e-10 Molar, the “Inhibition … Donor 3” value was determined as 1.1e-06 Molar and the “Inhibition … Donor 4” value was found to be 1.5e-09 Molar. Moreover, the “Inhibition … Donor 5” value in assay [3] stood at 2.7e-10 Molar. Also, in assay [4], the “Inhibition … Donor 6” value is 5e-11 Molar and the “Inhibition … Donor 7” value is 1.4e-10 Molar. The molecule further displayed an IC50 in assay [5] of 0.49 nM. The IC50 in assay [6] amounted to 0.37 nM.

B5: H2M1763N (antibody, mouse IgG2, V domains shown)
VH: QIQLVQSGAEMKRPGTSVKVSCKASGYTFTSYGINWVRQAPGQGLEWMGWISAYNGDTNYAQKLQGRVTMTTDTSTTTAYMEVRSLRSDDTAVYYCARFLTGTKDYYYGMDVWGQGTTVTVSS
VL: DIQMTQSPSSLSASVGDRVTITCQASQDISNFLNWYQQKPGKAPDLLINDASILETGVPSRFSGSGSGTDFTLTINNLQPEDIATYYCQQYDNLPLTFGGGTKVEIK
notes: as for B1
Take B5: in assay [1], the IC50 was 2.3 pM. In assay [2], this molecule returned an IC50 of 0.0088 nM. For the same molecule, in assay [3], the “Inhibition … Donor 1” value was found to be 4.9e-11 Molar, the “Inhibition … Donor 2” value was 3.4e-11 Molar, the “Inhibition … Donor 3” value turned out to be 1.3e-10 Molar and the “Inhibition … Donor 4” value amounted to 7.5e-11 Molar. The “Inhibition … Donor 5” value in assay [3] came to 1.9e-11 Molar. Also, in assay [4], the “Inhibition … Donor 6” value is 2.6e-11 Molar and the “Inhibition … Donor 7” value is 1.8e-11 Molar. Further, the IC50 in assay [5] is 0.0055 nM. The concentration for half-maximal inhibition (IC50) in assay [6] turned out to be 0.013 nM.
